Test results: the RNAGym collection of RNA variant scans (doi:10.1021/acssynbio.7b00057)

B1: Pistol ribozyme (parent)
chain: GGGUCGUUGUUCCAUAAUCGCGUGGAUAUGGCACGCAAGUUUCUACCGGGCACCGUAAAUGUCCGACUGGAGCCGUUCGGGCGGCUAUAAACAGACCUCAGGCCCGAAGCGUGGCGGCACCUGCCGCCGGUGGUAAAAAAGAUCGGAAGAGCACACGUCU

Variants of: B1
Test: aptazyme ON/OFF ratio, guanine; higher = stronger switching; co-transcriptional cleavage with and without guanine

| Variant | aptazyme ON/OFF ratio |
| --- | --- |
| U7G U8G G9U U10G U11A | 1.4 |
| U7G U8G G9C U11C C13A | 1.4 |
| U7G U8G G9C U11C C13G | 1.4 |
| U7G U8G G9C U11C C13U | 1.33 |
| U7G U8G G9U U10C C13U | 1.28 |
| U7G U8G G9U U10C C13A | 1.43 |
| U7G U8G G9U U10C C13G | 1.31 |
| U7G U8G G9U U10G | 1.42 |
| U7G U8G G9U U10C | 1.51 |
| U7G U8G G9U U10A | 3.21 |
| U7G U8G G9U U10G U11A C12A C13U | 1.18 |
| U7G U8G G9U U10G U11A C12A C13G | 1.06 |
| U7G U8G G9U U10G U11A C12A C13A | 1.07 |
| U7G U8G G9U U10G C12G | 1.33 |
| U7G U8G G9U U10G C12U | 1.13 |
| U7G U8G G9U U10G C12A | 1.44 |
| U7G U8G G9U U10C C12A C13U | 1.4 |
| U7G U8G G9U U10C C12A C13G | 1.29 |
| U7G U8G G9U U10C C12A C13A | 1.31 |
| U7G U8G U10A C12U C13A | 1.16 |
| U7G U8G U10A C12U C13U | 1.09 |

| Variant | aptazyme ON/OFF ratio |
| --- | --- |
| U7G U8G U10A C12U C13G | 1.18 |
| U7G U8G G9U U10C C12G C13A | 1.24 |
| U7G U8G G9U U10C C12G C13U | 1.25 |
| U7G U8G G9U U10C C12G C13G | 1.1 |
| U7G U8G G9U U10A U11G C13G | 1.13 |
| U7G U8G G9U U10A U11G C13U | 1.12 |
| U7G U8G G9U U10A U11G C13A | 1.07 |
| U7G U8G U10A U11A C12G | 1.22 |
| U7G U8G U10A U11A C12U | 1.25 |
| U7G U8G U10A U11A C12A | 1.13 |
| U7G U8G G9U U10A U11G C12A C13G | 1.04 |
| U7G U8G G9U U10A U11G C12A C13A | 1.1 |
| U7G U8G G9U U10A U11G C12A C13U | 1.11 |
| U7G U8G G9U U11A C12U C13G | 1.28 |
| U7G U8G G9U U11A C12U C13A | 1.33 |
| U7G U8G G9U U11A C12U C13U | 1.23 |
| U7G U8G G9U U10A U11C C13U | 1.07 |
| U7G U8G G9U U10A U11C C13A | 1.11 |
| U7G U8G G9U U10A U11C C13G | 1.09 |
| U7G U8G G9U C13U | 1.43 |
| U7G U8G G9U C13G | 1.26 |

| Variant | aptazyme ON/OFF ratio |
| --- | --- |
| U7G U8G G9U C13A | 1.44 |
| U7G U8G G9U U10G C12U C13G | 1.21 |
| U7G U8G G9U U10G C12U C13A | 1.17 |
| U7G U8G G9U U10G C12U C13U | 1.2 |
| U7G U8G G9U U10G U11C C12G C13G | 1.05 |
| U7G U8G G9U U10G U11C C12G C13U | 1.14 |
| U7G U8G G9U U10G U11C C12G C13A | 1.1 |
| U7G U8G G9U U10A C12U C13A | 1.11 |
| U7G U8G G9U U10A C12U C13G | 1.09 |
| U7G U8G G9U U10A C12U C13U | 1.06 |
| U7G U8G G9U U10C U11C C12A C13U | 1.53 |
| U7G U8G G9U U10C U11C C12A C13G | 1.3 |
| U7G U8G G9U U10C U11C C12A C13A | 1.33 |
| U7G U8G G9U U10G U11G C12A C13G | 1.1 |
| U7G U8G G9U U10G U11G C12A C13U | 1.06 |
| U7G U8G G9U U10G U11G C12A C13A | 1.04 |
| U7G U8G G9U U10C U11A C13G | 1.23 |
| U7G U8G G9U U10C U11A C13A | 1.38 |
| U7G U8G G9U U10C U11A C13U | 1.23 |
| U7G U8G G9U U10G U11G C13G | 1.08 |
| U7G U8G G9U U10G U11G C13U | 1.11 |

| Variant | aptazyme ON/OFF ratio |
| --- | --- |
| U7G U8G G9U U10G U11G C13A | 1.06 |
| U7G U8G G9C U11G C12A C13U | 1.3 |
| U7G U8G G9C U11G C12A C13A | 1.14 |
| U7G U8G G9C U11G C12A C13G | 1.23 |
| U7G U8G U10A U11A C13U | 1.35 |
| U7G U8G U10A U11A C13A | 1.33 |
| U7G U8G U10A U11A C13G | 1.21 |
| U7G U8G G9U U10A U11A C12U C13A | 1.11 |
| U7G U8G G9U U10A U11A C12U C13U | 1.18 |
| U7G U8G G9U U10A U11A C12U C13G | 1.11 |
| U7G U8G G9U U10G U11A C12U | 1.27 |
| U7G U8G G9U U10G U11A C12G | 1.16 |
| U7G U8G G9U U10G U11A C12A | 1.13 |
| U7G U8G G9U U10G U11A C12U C13G | 1.19 |
| U7G U8G G9U U10G U11A C12U C13U | 1.2 |
| U7G U8G G9U U10G U11A C12U C13A | 1.1 |
| U7G U8G G9C U11G C12G | 1.6 |
| U7G U8G G9C U11G C12A | 1.73 |
| U7G U8G G9C U11G C12U | 1.31 |
| U7G U8G U10A U11A C12G C13G | 1.26 |
